Measurements reported in publication PMC3097263.

Target: MqsA (UniProt Q46864 1-131)
Assay: EMSA

MqsA, sequence (Q46864 whole entry): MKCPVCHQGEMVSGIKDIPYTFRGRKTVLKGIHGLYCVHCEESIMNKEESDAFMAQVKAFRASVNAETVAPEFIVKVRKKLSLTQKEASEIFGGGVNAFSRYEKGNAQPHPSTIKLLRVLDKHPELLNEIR

B1: PrpoS 25-mer (dsDNA)
DNA 1: TGGTCAGACCTTGCAGGTGGGTAAT
DNA 2: ATTACCCACCTGCAAGGTCTGACCA
binding result: binds
